The values below come from paper PMC10258763, “Atomic model for core modifying region of human fatty acid synthase in complex with Denifanstat” (Nature Communications, 2023).

The data set concerns the molecule itself. In words: SEC + other: cryo-EM 2D class averages; truncated modifying region purified by Ni-NTA and Superdex 200 increase 10/300; 2D classes of elution fraction 3.

B1: isolated modifying region of hFASN expressed and purified as an independent construct (G855 to G2511) (domain or fragment, human, UniProt P49327 855-2511, looked up)
chain: GSPSAAIYNIDTSSESPDHYLVDHTLDGRVLFPATGYLSIVWKTLARALGLGVEQLPVVFEDVVLHQATILPKTGTVSLEVRLLEASRAFEVSENGNLVVSGKVYQWDDPDPRLFDHPESPTPNPTEPLFLAQAEVYKELRLRGYDYGPHFQGILEASLEGDSGRLLWKDNWVSFMDTMLQMSILGSAKHGLYLPTRVTAIHIDPATHRQKLYTLQDKAQVADVVVSRWLRVTVAGGVHISGLHTESAPRRQQEQQVPILEKFCFTPHTEEGCLSERAALQEELQLCKGLVQALQTKVTQQGLKMVVPGLDGAQIPRDPSQQELPRLLSAACRLQLNGNLQLELAQVLAQERPKLPEDPLLSGLLDSPALKACLDTAVENMPSLKMKVVEVLAGHGHLYSRIPGLLSPHPLLQLSYTATDRHPQALEAAQAELQQHDVAQGQWDPADPAPSALGSADLLVCNCAVAALGDPASALSNMVAALREGGFLLLHTLLRGHPLGDIVAFLTSTEPQYGQGILSQDAWESLFSRVSLRLVGLKKSFYGSTLFLCRRPTPQDSPIFLPVDDTSFRWVESLKGILADEDSSRPVWLKAINCATSGVVGLVNCLRREPGGNRLRCVLLSNLSSTSHVPEVDPGSAELQKVLQGDLVMNVYRDGAWGAFRHFLLEEDKPEEPTAHAFVSTLTRGDLSSIRWVCSSLRHAQPTCPGAQLCTVYYASLNFRDIMLATGKLSPDAIPGKWTSQDSLLGMEFSGRDASGKRVMGLVPAKGLATSVLLSPDFLWDVPSNWTLEEAASVPVVYSTAYYALVVRGRVRPGETLLIHSGSGGVGQAAIAIALSLGCRVFTTVGSAEKRAYLQARFPQLDSTSFANSRDTSFEQHVLWHTGGKGVDLVLNSLAEEKLQASVRCLATHGRFLEIGKFDLSQNHPLGMAIFLKNVTFHGVLLDAFFNESSADWREVWALVQAGIRDGVVRPLKCTVFHGAQVEDAFRYMAQGKHIGKVVVQVLAEEPEAVLKGAKPKLMSAISKTFCPAHKSYIIAGGLGGFGLELAQWLIQRGVQKLVLTSRSGIRTGYQAKQVRRWRRQGVQVQVSTSNISSLEGARGLIAEAAQLGPVGGVFNLAVVLRDGLLENQTPEFFQDVCKPKYSGTLNLDRVTREACPELDYFVVFSSVSCGRGNAGQSNYGFANSAMERICEKRRHEGLPGLAVQWGAIGDVGILVETMSTNDTIVSGTLPQRMASCLEVLDLFLNQPHMVLSSFVLAEKAAAYRDRDSQRDLVEAVAHILGIRDLAAVNLDSSLADLGLDSLMSVEVRQTLERELNLVLSVREVRQLTLRKLQELSSKADEASELACPTPKEDGLAQQQTQLNLRSLLVNPEGPTLMRLNSVQSSERPLFLVHPIEGSTTVFHSLASRLSIPTYGLQCTRAAPLDSIHSLAAYYIDCIRQVQPEGPYRVAGYSYGACVAFEMCSQLQAQQSPAPTHNSLFLFDGSPTYVLAYTQSYRAKLTPGCEAEAETEAICFFVQQFTDMEHNRVLEALLPLKGLEERVAAAVDLIIKSHQGLDRQELSFAARSFYYKLRAAEQYTPKAKYHGNVMLLRAKTGGAYGEDLGADYNLSQVCDGKVSVHVIEGDHRTLLEGSGLESIISIIHSSLAEPRVSVREG
notes: human fatty acid synthase (FASN), residues G855 to G2511, modifying region (DH, ΨME, ΨKR, ER, KR, ACP, TE); also called truncated modifying region; truncated hFASN modifying region; source: HEK293F, transfected (pcDNA3.1, gene synthesized by GenScript), purified (Ni-NTA, Superdex 200)
For orientation: stoichiometry N means the number of molecules, sites or subunits per partner or assembly. Turning to B1, the “stoichiometry N” value amounted to 2.
